# Values quoted from earlier work as cited in publication PMC7593401.
# Molecular target: C3b (Homo sapiens) (UniProt P01024)
# Assay: SPR
# C3b (Homo sapiens), sequence (P01024 23-667, chain 1 of 2): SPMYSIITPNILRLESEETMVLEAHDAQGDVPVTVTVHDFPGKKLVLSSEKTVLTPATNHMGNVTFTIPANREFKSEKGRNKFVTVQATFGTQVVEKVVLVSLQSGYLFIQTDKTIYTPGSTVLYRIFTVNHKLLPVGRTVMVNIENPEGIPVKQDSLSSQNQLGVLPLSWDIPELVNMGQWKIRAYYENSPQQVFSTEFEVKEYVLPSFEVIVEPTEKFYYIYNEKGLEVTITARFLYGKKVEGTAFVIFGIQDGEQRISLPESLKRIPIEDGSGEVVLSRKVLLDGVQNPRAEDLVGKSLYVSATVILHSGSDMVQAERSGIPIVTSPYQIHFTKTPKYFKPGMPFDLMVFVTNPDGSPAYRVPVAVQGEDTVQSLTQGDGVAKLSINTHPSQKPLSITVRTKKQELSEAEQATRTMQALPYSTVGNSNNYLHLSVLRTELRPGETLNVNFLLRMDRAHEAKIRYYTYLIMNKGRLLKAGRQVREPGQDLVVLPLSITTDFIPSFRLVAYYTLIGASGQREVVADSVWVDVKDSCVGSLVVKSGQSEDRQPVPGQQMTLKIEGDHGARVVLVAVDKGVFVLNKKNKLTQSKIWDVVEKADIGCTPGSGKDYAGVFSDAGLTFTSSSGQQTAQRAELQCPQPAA
# C3b (Homo sapiens), sequence (P01024 749-1663, chain 2 of 2): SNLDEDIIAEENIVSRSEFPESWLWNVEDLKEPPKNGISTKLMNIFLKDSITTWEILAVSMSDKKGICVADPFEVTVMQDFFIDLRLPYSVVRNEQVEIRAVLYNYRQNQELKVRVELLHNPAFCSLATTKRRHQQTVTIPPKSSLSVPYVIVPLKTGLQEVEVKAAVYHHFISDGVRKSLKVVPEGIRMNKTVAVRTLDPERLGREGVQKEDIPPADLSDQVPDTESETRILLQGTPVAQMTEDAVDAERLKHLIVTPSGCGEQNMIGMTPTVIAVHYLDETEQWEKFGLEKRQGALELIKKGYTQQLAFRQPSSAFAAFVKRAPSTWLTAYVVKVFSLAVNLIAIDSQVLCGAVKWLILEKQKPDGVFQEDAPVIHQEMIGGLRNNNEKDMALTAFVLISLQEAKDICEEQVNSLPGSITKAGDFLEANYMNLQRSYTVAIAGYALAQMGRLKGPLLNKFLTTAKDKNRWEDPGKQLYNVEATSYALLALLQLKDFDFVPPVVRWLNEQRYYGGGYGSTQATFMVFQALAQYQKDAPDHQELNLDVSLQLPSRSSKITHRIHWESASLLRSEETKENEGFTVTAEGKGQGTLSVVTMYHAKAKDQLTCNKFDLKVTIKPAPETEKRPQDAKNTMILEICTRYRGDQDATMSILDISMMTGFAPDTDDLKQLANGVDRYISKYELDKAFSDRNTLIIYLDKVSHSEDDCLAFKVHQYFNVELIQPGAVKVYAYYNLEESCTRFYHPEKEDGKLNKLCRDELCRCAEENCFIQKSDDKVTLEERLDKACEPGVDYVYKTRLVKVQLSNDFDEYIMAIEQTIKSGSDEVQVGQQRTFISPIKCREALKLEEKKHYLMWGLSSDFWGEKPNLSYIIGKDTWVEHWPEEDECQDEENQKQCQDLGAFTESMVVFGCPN
# FHL-1, sequence (P08603 19-1231): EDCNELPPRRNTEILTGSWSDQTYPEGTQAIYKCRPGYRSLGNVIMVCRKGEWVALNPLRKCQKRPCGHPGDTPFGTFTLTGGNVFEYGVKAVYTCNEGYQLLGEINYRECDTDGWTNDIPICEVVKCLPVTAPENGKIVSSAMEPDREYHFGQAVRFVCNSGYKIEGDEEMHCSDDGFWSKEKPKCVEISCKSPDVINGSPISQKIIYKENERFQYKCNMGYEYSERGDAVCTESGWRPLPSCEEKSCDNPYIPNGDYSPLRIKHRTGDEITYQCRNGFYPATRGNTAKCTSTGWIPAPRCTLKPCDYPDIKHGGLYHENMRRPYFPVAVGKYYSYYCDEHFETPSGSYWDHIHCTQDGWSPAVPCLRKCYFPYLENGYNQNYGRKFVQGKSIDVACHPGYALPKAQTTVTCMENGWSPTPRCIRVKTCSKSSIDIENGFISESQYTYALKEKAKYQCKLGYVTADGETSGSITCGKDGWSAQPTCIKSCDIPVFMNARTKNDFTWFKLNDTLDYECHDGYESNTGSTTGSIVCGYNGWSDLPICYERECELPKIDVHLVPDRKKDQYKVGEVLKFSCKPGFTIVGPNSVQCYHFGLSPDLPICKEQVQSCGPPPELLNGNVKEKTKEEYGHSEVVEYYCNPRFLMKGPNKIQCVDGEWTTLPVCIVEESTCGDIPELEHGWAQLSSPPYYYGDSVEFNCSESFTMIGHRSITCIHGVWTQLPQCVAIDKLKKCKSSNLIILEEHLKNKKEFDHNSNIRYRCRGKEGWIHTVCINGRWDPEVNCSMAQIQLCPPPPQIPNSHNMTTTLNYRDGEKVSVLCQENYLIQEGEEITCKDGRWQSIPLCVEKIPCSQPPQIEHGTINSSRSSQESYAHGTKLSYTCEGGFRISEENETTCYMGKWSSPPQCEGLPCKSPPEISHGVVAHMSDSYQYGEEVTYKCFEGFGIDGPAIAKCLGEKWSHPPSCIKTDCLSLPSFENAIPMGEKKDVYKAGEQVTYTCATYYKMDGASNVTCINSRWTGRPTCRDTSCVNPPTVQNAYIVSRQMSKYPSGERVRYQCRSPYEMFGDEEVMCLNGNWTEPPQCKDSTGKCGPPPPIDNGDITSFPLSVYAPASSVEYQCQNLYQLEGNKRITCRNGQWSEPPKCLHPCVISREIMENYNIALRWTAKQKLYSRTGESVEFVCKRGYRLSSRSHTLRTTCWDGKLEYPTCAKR
# Factor H, sequence (P08603 19-1231): as above
row,Kd [nM],Substance
1,600,Factor H (from UniProt P08603)
2,1000,FHL-1 (from UniProt P08603)
